# Read-outs that look alike come from different tables or passages of the source.
# T1: ttPolX (Thermus thermophilus HB8, UniProt Q5SJ64 1-575)
# T1 sequence: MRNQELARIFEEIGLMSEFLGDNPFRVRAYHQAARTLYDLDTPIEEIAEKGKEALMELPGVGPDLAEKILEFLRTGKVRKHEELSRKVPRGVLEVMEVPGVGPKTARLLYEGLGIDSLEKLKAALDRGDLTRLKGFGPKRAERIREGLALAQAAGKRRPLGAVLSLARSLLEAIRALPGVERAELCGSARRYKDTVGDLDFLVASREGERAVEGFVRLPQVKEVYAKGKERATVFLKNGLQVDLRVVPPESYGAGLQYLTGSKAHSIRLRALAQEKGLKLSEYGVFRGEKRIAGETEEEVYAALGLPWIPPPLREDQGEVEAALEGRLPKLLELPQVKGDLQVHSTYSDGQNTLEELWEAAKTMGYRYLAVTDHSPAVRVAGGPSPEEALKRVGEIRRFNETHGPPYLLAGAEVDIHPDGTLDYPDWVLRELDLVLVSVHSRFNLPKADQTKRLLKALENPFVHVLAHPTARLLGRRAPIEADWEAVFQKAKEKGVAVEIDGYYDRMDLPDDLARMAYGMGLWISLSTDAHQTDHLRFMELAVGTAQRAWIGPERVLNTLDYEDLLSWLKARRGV
# T2: ttPOLXc domain (Thermus thermophilus HB8, UniProt Q5SJ64 1-379)
# T2 sequence: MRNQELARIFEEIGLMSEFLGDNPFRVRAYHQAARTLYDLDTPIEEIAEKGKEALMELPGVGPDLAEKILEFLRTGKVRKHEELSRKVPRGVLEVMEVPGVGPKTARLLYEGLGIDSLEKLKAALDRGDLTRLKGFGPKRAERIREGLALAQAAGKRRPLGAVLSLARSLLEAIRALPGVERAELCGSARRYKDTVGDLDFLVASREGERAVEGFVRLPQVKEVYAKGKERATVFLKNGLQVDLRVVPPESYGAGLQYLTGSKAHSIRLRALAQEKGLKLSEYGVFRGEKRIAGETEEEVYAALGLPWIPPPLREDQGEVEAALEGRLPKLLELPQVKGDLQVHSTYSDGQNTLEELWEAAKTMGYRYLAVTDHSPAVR
# T3: ttPHP domain (Thermus thermophilus HB8, UniProt Q5SJ64 339-575)
# T3 sequence: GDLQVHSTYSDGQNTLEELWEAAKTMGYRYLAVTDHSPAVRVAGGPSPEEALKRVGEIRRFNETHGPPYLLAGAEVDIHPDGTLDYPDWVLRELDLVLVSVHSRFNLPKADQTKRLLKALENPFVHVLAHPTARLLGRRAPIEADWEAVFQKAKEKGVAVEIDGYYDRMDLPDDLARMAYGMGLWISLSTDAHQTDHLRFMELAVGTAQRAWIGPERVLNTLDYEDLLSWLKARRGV
# T4: His-tagged ttPOLXc domain (N-terminal domain of ttPolX, residues 1-379) (Thermus thermophilus HB8, UniProt Q5SJ64 1-379)
# T4 sequence (looked up): T2 sequence
# B1: 40T ssDNA (ssDNA)
# DNA: CACTGGCGGTCGTTCTATCGGGTGTTGCTTTAGTTGTCAT
# B2: 40T/40C dsDNA (dsDNA)
# DNA 1: B1 DNA
# DNA 2: ATGACAACTAAAGCAACACCCGATAGAACGACCGCCAGTG
# B3: 21F/40T/P18G 5'-phosphorylated 1-nt gapped DNA (dsDNA)
# DNA 1: B1 DNA
# DNA 2: ATGACAACTAAAGCAACACCC
# DNA 3: ATAGAACGACCGCCAGTG
# modifications: 5'-phosphate on 18G (P18G)
# B4: 21F/40T/18G 1-nt gapped DNA (dsDNA)
# DNA 1: B1 DNA
# DNA 2: ATGACAACTAAAGCAACACCC
# DNA 3: ATAGAACGACCGCCAGTG
# B5: His-tagged ttPHP domain (C-terminal domain of ttPolX, residues 339-575) (domain or fragment, Thermus thermophilus HB8, UniProt Q5SJ64 339-575, looked up)
# chain: T3 sequence
# Columns and labels:
# ttPolX [1] = molecular target: T1, ttPolX; test: EMSA
# ttPOLXc domain [2] = molecular target: T2, ttPOLXc domain; test: EMSA
# ttPHP domain = molecular target: T3, ttPHP domain; test: EMSA
# ttPolX [3] = molecular target: T1, ttPolX; test: EMSA; remark: listed apart in the source
# ttPOLXc domain [4] = molecular target: T2, ttPOLXc domain; test: EMSA; remark: listed apart in the source
# ttPOLXc domain [5] = molecular target: T2, ttPOLXc domain; test: EMSA; remark: listed apart in the source
# ttPolX [6] = molecular target: T1, ttPolX; test: EMSA; remark: listed apart in the source
# ttPolX [7] = molecular target: T1, ttPolX; test: EMSA; remark: listed apart in the source
# ttPOLXc domain [8] = molecular target: T2, ttPOLXc domain; test: EMSA; remark: listed apart in the source
# [9] = molecular target: T4, His-tagged ttPOLXc domain (N-terminal …); test: SEC
binder,measurement,setting,value
B1,Kd,ttPolX [1],1.2 ± 0.7 µM
same,Kd,ttPOLXc domain [2],5.5 ± 1.7 µM
same,binding result,ttPHP domain,no binding
B2,Kd,ttPolX [3],1.2 ± 0.7 µM
same,binding result,ttPHP domain,no binding
same,Kd,ttPOLXc domain [4],9.3 ± 3.8 µM
B3,Kd,ttPOLXc domain [5],4.8 ± 2.5 µM
same,Kd,ttPolX [6],0.3 ± 0.18 µM
same,binding result,ttPHP domain,no binding
B4,Kd,ttPolX [7],0.39 ± 0.15 µM
same,Kd,ttPOLXc domain [8],6.5 ± 2.5 µM
same,binding result,ttPHP domain,no binding
B5,stoichiometry N,[9],1 ttPOLXc:ttPHP molar ratio

# Reference: publication PMC2665239 (Nucleic Acids Research, 2009)
